“And” between values parts separate entries of the source, which are not always exact repeats. Equal values may be shown once.
Tests used:
[1] = target: T1, Recombinant human MASP-2 (specificity ELISA, Example 14) (human, UniProt O00187 16-686, limits assumed); experiment: solid phase ELISA, immobilized protease, mean apparent KD of two lots
From the text: (§1) The apparent dissociation constant (KD) was estimated by nonlinear regression using a 4-parameter logistic model.
(§2) Fold selectivity calculated as KD(related serine protease)/mean KD(MASP-2).

MASP-1 = target: T2, MASP-1 (human, UniProt P48740 20-699, limits assumed); experiment: as above
T2 construct: Species read from 'Recombinant human MASP-2 or C1r, C1s, CFD, MASP-1 and MASP-3'
T2 sequence (looked up): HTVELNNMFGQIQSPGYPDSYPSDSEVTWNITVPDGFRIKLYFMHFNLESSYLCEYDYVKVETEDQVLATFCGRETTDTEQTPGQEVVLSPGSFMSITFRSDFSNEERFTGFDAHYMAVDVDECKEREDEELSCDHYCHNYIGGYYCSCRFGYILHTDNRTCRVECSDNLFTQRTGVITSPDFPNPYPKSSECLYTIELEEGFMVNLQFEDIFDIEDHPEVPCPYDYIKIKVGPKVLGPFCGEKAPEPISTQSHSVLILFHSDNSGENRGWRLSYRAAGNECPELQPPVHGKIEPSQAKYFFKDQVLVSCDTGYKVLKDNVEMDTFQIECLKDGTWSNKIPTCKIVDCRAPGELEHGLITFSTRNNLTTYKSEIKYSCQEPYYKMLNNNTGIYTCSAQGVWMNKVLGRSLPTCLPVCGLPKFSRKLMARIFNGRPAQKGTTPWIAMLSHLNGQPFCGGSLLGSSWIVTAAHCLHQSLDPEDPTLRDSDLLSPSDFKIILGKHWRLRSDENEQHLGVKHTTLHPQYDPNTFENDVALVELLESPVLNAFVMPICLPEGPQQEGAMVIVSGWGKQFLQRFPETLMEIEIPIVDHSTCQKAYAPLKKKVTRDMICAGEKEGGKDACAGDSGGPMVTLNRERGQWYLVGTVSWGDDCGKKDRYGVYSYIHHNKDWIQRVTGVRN
From the text: as §1, §2

C1r = target: T3, C1r (human, UniProt P00736 18-705, limits assumed); experiment: as above
T3 construct: Species read from 'Recombinant human MASP-2 or C1r, C1s, CFD, MASP-1 and MASP-3'
T3 sequence (looked up): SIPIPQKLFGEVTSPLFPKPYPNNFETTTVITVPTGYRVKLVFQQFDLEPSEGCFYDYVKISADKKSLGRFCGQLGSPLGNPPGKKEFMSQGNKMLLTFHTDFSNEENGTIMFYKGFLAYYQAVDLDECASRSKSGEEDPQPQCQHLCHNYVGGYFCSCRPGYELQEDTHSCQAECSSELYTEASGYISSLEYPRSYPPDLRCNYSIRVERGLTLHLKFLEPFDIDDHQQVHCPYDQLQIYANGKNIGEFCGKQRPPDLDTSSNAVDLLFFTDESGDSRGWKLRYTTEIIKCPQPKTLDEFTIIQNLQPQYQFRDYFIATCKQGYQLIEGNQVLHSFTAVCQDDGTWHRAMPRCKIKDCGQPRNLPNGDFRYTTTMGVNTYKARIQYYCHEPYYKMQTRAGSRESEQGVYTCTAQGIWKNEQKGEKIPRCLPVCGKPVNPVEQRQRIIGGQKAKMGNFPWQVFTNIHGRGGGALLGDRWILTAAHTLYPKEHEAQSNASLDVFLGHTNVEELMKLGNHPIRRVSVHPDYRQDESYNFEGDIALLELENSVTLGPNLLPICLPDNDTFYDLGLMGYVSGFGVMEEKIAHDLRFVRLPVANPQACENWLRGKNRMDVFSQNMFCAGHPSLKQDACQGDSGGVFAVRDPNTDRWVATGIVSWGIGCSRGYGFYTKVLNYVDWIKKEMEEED
From the text: as §1, §2

[2] = target: T1, Recombinant human MASP-2 (specificity …); experiment: solid phase ELISA, immobilized protease, apparent KD by 4-parameter logistic fit
From the text: as §1, §2

[3] = target: Mouse MASP-2 CCP1/CCP2/SP (mouse, UniProt Q91WP0 287-685, limits assumed); experiment: BLI (Octet RED96), OMS858 on anti-human Fc capture sensors, MASP-2 protein 1.6-50 nM
Mouse MASP-2 CCP1/CCP2/SP, sequence (Q91WP0 other isoform, or with tags, fused parts or gaps limits assumed): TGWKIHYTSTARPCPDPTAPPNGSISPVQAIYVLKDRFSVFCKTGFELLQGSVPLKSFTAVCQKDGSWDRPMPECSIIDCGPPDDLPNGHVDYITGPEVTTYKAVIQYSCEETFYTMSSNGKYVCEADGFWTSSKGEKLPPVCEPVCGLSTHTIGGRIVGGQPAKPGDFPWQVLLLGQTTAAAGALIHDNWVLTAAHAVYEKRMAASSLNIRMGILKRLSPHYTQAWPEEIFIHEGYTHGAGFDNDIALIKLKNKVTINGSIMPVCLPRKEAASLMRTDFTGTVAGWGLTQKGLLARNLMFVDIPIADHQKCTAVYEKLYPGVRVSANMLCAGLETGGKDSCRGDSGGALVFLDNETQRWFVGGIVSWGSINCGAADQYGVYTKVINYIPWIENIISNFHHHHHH
Description: (§3) All measurements were conducted with the Octet RED96 system (ForteBio) using PBS containing 1% BSA and 0.02% Tween 20 as assay buffer. […] After one step of baseline, the captured sensors were submerged into wells containing different concentrations of the target proteins (1.6-50 nM) for the association step (120 sec), and then transferred to empty wells for the dissociation step (200 sec). In all experiments, the captured sensor was also dipped in a well containing no analyte to allow single reference subtraction to compensate for the natural dissociation of the captured antibody. The recorded binding sensorgrams were analyzed with Octet data analysis software (ForteBio) to determine binding affinity (KD).

[4] = target: T4, Human MASP-2 CCP1/CCP2/SP (6xHis, E. coli, Example 10) (human, UniProt O00187 287-686, limits assumed); experiment: as above
T4 construct: Expressed in BL21(DE3)pLysS E. coli and purified by IMAC; It may be the same protein as m6; also called catalytic fragment (CCP1-CCP2-SP domains) of human MASP-2; wild-type human H508
T4 sequence (O00187 other isoform, or with tags, fused parts or gaps limits assumed): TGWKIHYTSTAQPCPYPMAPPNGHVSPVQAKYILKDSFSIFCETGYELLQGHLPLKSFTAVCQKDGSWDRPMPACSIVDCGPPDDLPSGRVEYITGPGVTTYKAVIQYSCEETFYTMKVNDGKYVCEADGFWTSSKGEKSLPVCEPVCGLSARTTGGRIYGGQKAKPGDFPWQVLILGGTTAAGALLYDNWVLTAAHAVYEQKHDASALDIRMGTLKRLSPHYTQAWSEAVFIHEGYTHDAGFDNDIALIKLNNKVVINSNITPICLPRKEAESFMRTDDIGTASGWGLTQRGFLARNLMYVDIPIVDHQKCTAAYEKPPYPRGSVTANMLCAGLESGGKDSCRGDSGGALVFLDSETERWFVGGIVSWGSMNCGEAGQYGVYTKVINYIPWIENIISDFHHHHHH
Description: as §3

[5] = target: T5, Human MASP-2 CCP1/CCP2/SP H508Q 'dog-like' (human, UniProt O00187 287-686, limits assumed); experiment: as above
T5 construct: also called dog-like variant of human MASP-2; MASP-2 H508Q
T5 sequence (O00187 other isoform, or with tags, fused parts or gaps H508Q H508Q limits assumed): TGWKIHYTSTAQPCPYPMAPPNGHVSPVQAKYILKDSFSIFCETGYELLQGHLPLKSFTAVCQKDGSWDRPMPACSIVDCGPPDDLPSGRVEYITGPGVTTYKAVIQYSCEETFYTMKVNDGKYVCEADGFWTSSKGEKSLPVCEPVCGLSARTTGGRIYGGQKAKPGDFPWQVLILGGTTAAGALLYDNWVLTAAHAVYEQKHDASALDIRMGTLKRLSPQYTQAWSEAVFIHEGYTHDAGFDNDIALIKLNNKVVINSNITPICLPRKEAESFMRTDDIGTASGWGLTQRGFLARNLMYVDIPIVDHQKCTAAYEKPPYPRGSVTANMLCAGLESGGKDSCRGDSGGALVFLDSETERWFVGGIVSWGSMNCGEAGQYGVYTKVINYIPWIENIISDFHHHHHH
Description: as §3

Cyno MASP-2 CCP1/CCP2/SP = target: T6, Cyno MASP-2 CCP1/CCP2/SP (cynomolgus monkey, UniProt O00187 287-686 (human entry), limits assumed); experiment: as above
T6 construct: also called cynomolgus monkey MASP-2 CCP1/CCP2/SP
T6 sequence (O00187 other isoform, or with tags, fused parts or gaps limits assumed): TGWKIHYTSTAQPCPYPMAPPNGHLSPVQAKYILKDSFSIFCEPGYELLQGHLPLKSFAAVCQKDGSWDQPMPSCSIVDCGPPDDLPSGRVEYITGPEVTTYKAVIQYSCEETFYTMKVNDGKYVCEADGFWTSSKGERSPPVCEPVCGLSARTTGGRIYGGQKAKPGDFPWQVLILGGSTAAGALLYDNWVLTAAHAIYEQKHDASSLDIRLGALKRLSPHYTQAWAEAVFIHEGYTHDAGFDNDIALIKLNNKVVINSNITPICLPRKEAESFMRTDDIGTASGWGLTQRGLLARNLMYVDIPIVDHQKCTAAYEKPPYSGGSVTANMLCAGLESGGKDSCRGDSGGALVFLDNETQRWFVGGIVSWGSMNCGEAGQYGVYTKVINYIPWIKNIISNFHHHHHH
Description: as §3

T1 sequence (O00187 16-686 limits assumed): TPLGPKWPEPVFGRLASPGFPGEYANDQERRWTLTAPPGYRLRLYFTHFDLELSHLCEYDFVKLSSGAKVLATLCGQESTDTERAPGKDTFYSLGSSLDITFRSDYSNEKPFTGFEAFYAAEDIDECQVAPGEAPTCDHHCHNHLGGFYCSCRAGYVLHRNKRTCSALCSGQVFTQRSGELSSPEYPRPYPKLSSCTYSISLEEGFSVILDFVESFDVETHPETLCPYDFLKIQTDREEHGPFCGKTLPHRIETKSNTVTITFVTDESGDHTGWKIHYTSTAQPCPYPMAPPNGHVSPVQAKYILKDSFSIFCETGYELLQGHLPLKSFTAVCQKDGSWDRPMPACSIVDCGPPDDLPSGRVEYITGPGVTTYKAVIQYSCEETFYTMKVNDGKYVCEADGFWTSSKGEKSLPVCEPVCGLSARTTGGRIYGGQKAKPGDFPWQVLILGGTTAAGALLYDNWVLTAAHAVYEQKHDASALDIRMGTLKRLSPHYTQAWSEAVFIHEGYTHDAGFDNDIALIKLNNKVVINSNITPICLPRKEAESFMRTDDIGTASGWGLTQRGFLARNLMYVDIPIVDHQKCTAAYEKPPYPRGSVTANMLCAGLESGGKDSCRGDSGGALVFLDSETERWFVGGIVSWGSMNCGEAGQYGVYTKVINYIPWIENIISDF

B1: mAb OMS858 (humanized anti-MASP-2 antibody) (antibody, V domains shown)
VH: QVQLVQSGAEVKKPGASVKVSCKASGYTFTNHHMHWLRQAPGQGLEWIGDIDASDSETHYIEKFKDRATLTIDKSSSTAYMELSSLRSEDTAVYYCARGDITTTLRYFDVWGQGTLVTVSS
VL: DIQLTQSPSSLSASVGDRVTITCSASSSVRYMYWYQQKPGKAPKLLIYDTSNLASGVPSRFSGSGSGTDNTLTISSLQPEDFATYYCQQWSSYPLTFGQGTKVEIKR
notes: also called antibody OMS858; biotinylated OMS858
Kd [1]: 0.047 µg/mL | Kd (MASP-1): > 100 µg/mL | Kd (C1r): > 100 µg/mL | Kd [2]: 0.042 µg/mL and 0.051 µg/mL | Kd [3]: 32.9 nM | Kd [4]: 4.52 nM | Kd [5]: ~2000 nM | Kd (Cyno MASP-2 CCP1/CCP2/SP): 8.23 nM

Reference: patent publication US20230265215A1 (OMEROS, published 2023)
